Source: article PMC3903776, “Structural Characterization of the Mechanosensitive Channel Candidate MCA2 from Arabidopsis thaliana” (PLoS ONE, 2014)

Target: the molecule itself
Test: cross-linking; purified MCA2-6H in PBS with 4% APFO; 10 mM glutaraldehyde, room temperature, up to 30 min, stopped with 50 mM Tris-HCl pH 8.0; reducing SDS-PAGE, CBB staining

B1: MCA2-6H (Arabidopsis thaliana MCA2 with a 6xHis tag fused to the carboxyl terminus) (natural protein, UniProt Q3EBY6 1-416, looked up)
chain: MANSWDQLGEIASVAQLTGIDALKLIGMIVNAANTARMHKKNCRQFAHHLKLIRNLLEQIKNSEMNQRSEILEPLQGLDDALRRSYILVKSCQEKSYLYLLAMGWNIVNQFEKAQNEIDLFLKIVPLINMADNARIRERLEAIERDQREYTLDEEDRKVQDVILKQESTREAATSVLKKTLSRSYPNMGFCEALKTEEEKLQLELQRSRARYDADQCEVIQRLIDVTQTAATVEPNLEKVLTKKEELTSSKKRDDLYDTDSSSIRADSRSTSYVSSGHELLSGRSLQHRGNWHADLLDCCSEPCLCLKTLFFPCGTLAKISTVATSRQISSTEVCKNLIVYSLILSCCCYTCCIRKKLRKTLNITGGCIDDFLSHLMCCCCALVQELREVEIHRASYGTEKSNKEMSPPTPQFMEE
notes: MCA2 of Arabidopsis thaliana, 416 amino acid residues; source: Sf9 cells, baculovirus (Bac-to-Bac), membrane fraction solubilised in APFO, purified (His GraviTrap, Superdex 200 SEC); not shown: 6xHis, C-terminal, kept
- stoichiometry N: 4
